# B1: murine leptin (protein, UniProt P41160 22-167, looked up)
# Leptin: VPIQKVQDDTKTLIKTIVTRINDISHTQSVSAKQRVTGLDFIPGLHPILSLSKMDQTLAVYQQVLTSLPSQNVLQIANDLENLRDLLHLLAFSKSCSLPQTSGLQKPESLDGVLEASLYSTEVVALSRLQGSLQDILQQLDVSPEC
# How the values were obtained:
# [1] = DIO rat 14-day mini-pump study of leptin and amylin: food intake, body weight, body composition (Example 1); type: in vivo; details: DIO rats, 14 days s.c. osmotic mini-pump, leptin 500 μg/kg/day, amylin 100 μg/kg/day
# Source text: Diet-induced obesity (DIO) in the in the Sprague-Dawley rat is a valuable model for the study of obesity and regulation of energy homeostasis. These rats were developed from a line of (Crl:CD®(SD)BR) rats that are prone to become obese on a diet relatively high in fat and energy. See, for example, Levin (1994) Am. J. Physiol. 267:R527-R535, Levin et al. (1997) Am. J. Physiol. 273:R725-R730. DIO male rats were obtained from Charles River Laboratories, Inc. (Wilmington, Mass.). The rats were housed individually in shoebox cages at 22° C. in a 12/12-hour light dark cycle. Rats were maintained ad-libitum on a moderately high fat diet (32% kcal from fat; Research Diets D1226B) for 6-7 weeks prior to drug treatment. At the end of the fattening period (prior to drug administration), the animals typically achieve a mean body weight of about 500 g.
# The DIO animals were divided into four treatment groups. Each group was implanted with subcutaneous osmotic mini-pumps (DURECT Corp., Cupertino, Calif.) designed to deliver vehicle, leptin (500 μg/kg/day), amylin (100 μg/kg/day) or leptin (500 μg/kg/day)+amylin (100 μg/kg/day) for a 14 day period. […] Food intake and body weight were recorded daily. Body composition was measured prior to and after drug treatment using NMR (Echo Medical Systems, Houston, Tex.). […]
# [2] = Pair-feeding experiment in DIO rats, amylin+leptin (Example 2); type: in vivo, rat; details: two weeks, leptin 500 μg/kg/day with intake restricted to amount consumed by amylin-treated group, FIG. 7
# Procedure: Amylin is known to have an anorectic effect on a recipient. In order to examine the effect of amylin+leptin in the context of an anorectic effect of amylin, a pair-feeding experiment was performed. DIO rats and drug treatment groups were established as described above. DIO rats in the vehicle, amylin, and amylin+leptin treatment groups had ad libitum access to food, while intake in the pair-fed leptin treatment was restricted to the amount consumed by the amylin-treated group. Body weight was recorded daily for the two weeks of treatment. […] The combination of amylin+leptin results in a decrease of about 12% in body weight relative to vehicle control.
# [3] = In-bred DIO (Levin) rats, amylin and leptin, body weight and NMR body composition (Example 2); type: in vivo, rat; details: two weeks, leptin 500 μg/kg/day, amylin 100 μg/kg/day, FIG. 6A
# Procedure: They were housed individually in shoebox cages at 22 C in a 12/12-hour light dark cycle.
# Body composition was measured prior to and after drug treatment using NMR (Echo Medical Systems, Houston, Tex.). For body composition measurements, rats were briefly placed (˜1 min) in a well-ventilated plexiglass tube that was then inserted into a specialized rodent NMR machine. Rats were scanned prior to pump implantation and on the final day of the experiment. This enabled the calculation of changes in actual grams of fat and dry lean tissue (e.g., grams of body fat after treatment−grams of body fat at baseline=change in grams of body fat) and changes in % body composition for fat and dry lean tissue (e.g., % body fat after treatment−% body fat at baseline=change in % body fat).
# [4] = 24-week randomized, double-blind, active-drug-controlled study of pramlintide and metreleptin in overweight and obese subjects (Example 8); type: in vivo, human
# Procedure: To evaluate inter alia the safety, tolerability and effect of the combination of an amylin agonist (pramlintide) and a leptin (metreleptin) on changes in body weight, a 24-week, randomized, double-blind, active-drug-controlled, multicenter study was conducted under USFDA approved protocols. Secondary objectives of the study were the determination of the pharmacokinetics of pramlintide and leptin, waist circumference, rate of change in body weight, and patient reported outcomes including for example without limitation perception of well-being related to weight change and mood. The study enrolled overweight and obese subjects with defined BMI ([…]), with enrollment statistics as provided in Table 2. […] Subjects treated with pramlintide/metreleptin lost an average of 25 pounds from the start of the 24-week study compared with an average of 17 pounds for subjects treated with pramlintide alone.
# In an initial lead-in phase, all subjects received dietary instructions and treatment with pramlintide at 180 mcg BID for two weeks, followed by pramlintide at 360 mcg BID for two weeks. Subjects who completed the 4-week lead-in period and who lost 2-8 percent body weight during this period were eligible to continue the study. The term “enrolled” (Table 2) refers to subjects (N=177) receiving at least one dose of pramlintide during the lead-in period. The term “non-randomized” refers to subjects not continuing in the study past the lead-in period. The term “evaluable” refers to subjects who completed Visit 9 (Week 16) study procedures and adequately complied with the study protocol.
# After the 4-week lead-in period, for the remaining 20 weeks of the study the subjects were randomized in a 2:2:1 ratio to one of three groups with BID treatment of 1) pramlintide 360 mcg/metreleptin 5 mg (“Leptin+Pramlintide”); 2) pramlintide 360 mcg/placebo (“Pramlintide”); or 3) metreleptin 5 mg/placebo (“Leptin”).
# [5] = Leptin effect on body weight in normal HSD versus DIO prone rats (Example 3); type: in vivo, rat; details: FIG. 9
# Procedure: Normal, lean HSD rats were divided into two treatment groups. Each group was implanted with subcutaneous osmotic mini-pumps (DURECT Corp., Cupertino, Calif.) designed to deliver either vehicle or leptin (500 μg/kg/day) for a 14 day period and body weight was recorded weekly. […] The DIO prone animals described herein appear resistant to the weight reducing effect of leptin.
# [6] = 4-week pramlintide lead-in, arm of later randomization
molecule,measurement,setting,value
B1,cumulative food intake,[1]; FIG. 1,no effect
same,total changes in body weight,[1]; FIG. 2,no effect
same,"decrease in body weight relative to vehicle control, pair-fed",[2],~6%
same,vehicle-corrected decrease in percent body weight,[3],2%
same,"rate of change in body weight, early rate","[4]; 0-12 weeks, evaluable population, FIG. 24",−0.19±0.05 kg/week
same,Mean Change in Body Weight,"[4]; 4-week lead-in period in which all subjects received pramlintide (180 then 360 mcg BID), arm of later randomization",-3.97 kg
same,% Weight Loss During Lead-in <5% (share of subjects),[4]; [6],78%
same,% Weight Loss During Lead-in ≧5% (share of subjects),[4]; [6],22%
same,"rate of change in body weight, late rate","[4]; 12-20 weeks, evaluable population, FIG. 24",−0.01±0.08 kg/week
same,body weight,"[5]; DIO prone rats, same leptin dose",ineffective
same,body weight,"[5]; normal, lean HSD rats, leptin 500 μg/kg/day s.c. mini-pump, 14 days",significant and sustained reduction in body weight

# From patent US8394765B2, “Methods of treating obesity with two different anti-obesity agents” (Amylin Pharmaceuticals LLC, priority 2004, dated 2013)
